*1 amine or outer side, *2 acyl side, *3 side chain or, on linkers, in order; H or OH if unused. Where no end group is shown, it is not given here. Side-chain parts run from the residue outwards. [ ]: non-standard residue; d: D form. The star is where a group is joined. C20 diacid = O=C(O)CCCCCCCCCCCCCCCCCCC(=O)*; C18 diacid = O=C(O)CCCCCCCCCCCCCCCCC(=O)*; C16 diacid = O=C(O)CCCCCCCCCCCCCCC(=O)*; γGlu = O=C(O)[C@H](CCC(=O)[*:2])N[*:1]; Api = NC1(C(=O)O)CCNCC1; AEEA = NCCOCCOCC(=O)O; Aib = CC(C)(N)C(=O)O; Propionyl = CCC(=O)*
T1: CRF1R receptor (UniProt P34998 24-415, limits assumed)
T1 sequence (looked up): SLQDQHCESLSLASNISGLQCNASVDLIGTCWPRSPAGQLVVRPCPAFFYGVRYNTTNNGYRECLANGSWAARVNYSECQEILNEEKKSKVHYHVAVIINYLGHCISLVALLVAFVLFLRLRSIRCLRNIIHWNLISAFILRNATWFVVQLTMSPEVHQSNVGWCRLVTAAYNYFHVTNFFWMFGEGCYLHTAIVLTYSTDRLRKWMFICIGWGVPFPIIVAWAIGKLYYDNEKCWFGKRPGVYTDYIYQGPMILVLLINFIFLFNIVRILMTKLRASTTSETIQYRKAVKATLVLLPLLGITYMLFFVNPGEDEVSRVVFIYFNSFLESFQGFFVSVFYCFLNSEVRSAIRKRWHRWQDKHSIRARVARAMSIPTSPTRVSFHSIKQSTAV

B1: SEQ ID NO 93 (peptide)
peptide: VLSLD[dV]PIKLK([AEEA-AEEA-γGlu-C18 diacid])KILLEQEKQKKQREQAETNKQILAQV-NH2
modifications: N-terminus assumed
SMILES: CC[C@H](C)[C@H](NC(=O)[C@H](CCC(N)=O)NC(=O)[C@H](CCCCN)NC(=O)[C@H](CC(N)=O)NC(=O)[C@@H](NC(=O)[C@H](CCC(=O)O)NC(=O)[C@H](C)NC(=O)[C@H](CCC(N)=O)NC(=O)[C@H](CCC(=O)O)NC(=O)[C@H](CCCNC(=N)N)NC(=O)[C@H](CCC(N)=O)NC(=O)[C@H](CCCCN)NC(=O)[C@H](CCCCN)NC(=O)[C@H](CCC(N)=O)NC(=O)[C@H](CCCCN)NC(=O)[C@H](CCC(=O)O)NC(=O)[C@H](CCC(N)=O)NC(=O)[C@H](CCC(=O)O)NC(=O)[C@H](CC(C)C)NC(=O)[C@H](CC(C)C)NC(=O)[C@@H](NC(=O)[C@H](CCCCN)NC(=O)[C@H](CCCCNC(=O)COCCOCCNC(=O)COCCOCCNC(=O)CC[C@H](NC(=O)CCCCCCCCCCCCCCCCC(=O)O)C(=O)O)NC(=O)[C@H](CC(C)C)NC(=O)[C@H](CCCCN)NC(=O)[C@@H](NC(=O)[C@@H]1CCCN1C(=O)[C@H](NC(=O)[C@H](CC(=O)O)NC(=O)[C@H](CC(C)C)NC(=O)[C@H](CO)NC(=O)[C@H](CC(C)C)NC(=O)[C@@H](N)C(C)C)C(C)C)[C@@H](C)CC)[C@@H](C)CC)[C@@H](C)O)C(=O)N[C@@H](CC(C)C)C(=O)N[C@@H](C)C(=O)N[C@@H](CCC(N)=O)C(=O)N[C@H](C(N)=O)C(C)C
B2: SEQ ID NO 227 (peptide)
peptide: Ac-IVLSLD[dV]PIGLK([γGlu-C20 diacid])KILLEQEKQKKQREQAETN[Api]QILAQV-NH2
SMILES: CC[C@H](C)[C@H](NC(C)=O)C(=O)N[C@H](C(=O)N[C@@H](CC(C)C)C(=O)N[C@@H](CO)C(=O)N[C@@H](CC(C)C)C(=O)N[C@@H](CC(=O)O)C(=O)N[C@@H](C(=O)N1CCC[C@H]1C(=O)N[C@H](C(=O)NCC(=O)N[C@@H](CC(C)C)C(=O)N[C@@H](CCCCNC(=O)CC[C@H](NC(=O)CCCCCCCCCCCCCCCCCCC(=O)O)C(=O)O)C(=O)N[C@@H](CCCCN)C(=O)N[C@H](C(=O)N[C@@H](CC(C)C)C(=O)N[C@@H](CC(C)C)C(=O)N[C@@H](CCC(=O)O)C(=O)N[C@@H](CCC(N)=O)C(=O)N[C@@H](CCC(=O)O)C(=O)N[C@@H](CCCCN)C(=O)N[C@@H](CCC(N)=O)C(=O)N[C@@H](CCCCN)C(=O)N[C@@H](CCCCN)C(=O)N[C@@H](CCC(N)=O)C(=O)N[C@@H](CCCNC(=N)N)C(=O)N[C@@H](CCC(=O)O)C(=O)N[C@@H](CCC(N)=O)C(=O)N[C@@H](C)C(=O)N[C@@H](CCC(=O)O)C(=O)N[C@H](C(=O)N[C@@H](CC(N)=O)C(=O)NC1(C(=O)N[C@@H](CCC(N)=O)C(=O)N[C@H](C(=O)N[C@@H](CC(C)C)C(=O)N[C@@H](C)C(=O)N[C@@H](CCC(N)=O)C(=O)N[C@H](C(N)=O)C(C)C)[C@@H](C)CC)CCNCC1)[C@@H](C)O)[C@@H](C)CC)[C@@H](C)CC)C(C)C)C(C)C
B3: SEQ ID NO 92 (peptide)
peptide: Ac-VLSLD[dV]PIKLK([AEEA-AEEA-γGlu-C18 diacid])KILLEQEKQKKQREQAETNKQILAQV-NH2
SMILES: CC[C@H](C)[C@H](NC(=O)[C@H](CCC(N)=O)NC(=O)[C@H](CCCCN)NC(=O)[C@H](CC(N)=O)NC(=O)[C@@H](NC(=O)[C@H](CCC(=O)O)NC(=O)[C@H](C)NC(=O)[C@H](CCC(N)=O)NC(=O)[C@H](CCC(=O)O)NC(=O)[C@H](CCCNC(=N)N)NC(=O)[C@H](CCC(N)=O)NC(=O)[C@H](CCCCN)NC(=O)[C@H](CCCCN)NC(=O)[C@H](CCC(N)=O)NC(=O)[C@H](CCCCN)NC(=O)[C@H](CCC(=O)O)NC(=O)[C@H](CCC(N)=O)NC(=O)[C@H](CCC(=O)O)NC(=O)[C@H](CC(C)C)NC(=O)[C@H](CC(C)C)NC(=O)[C@@H](NC(=O)[C@H](CCCCN)NC(=O)[C@H](CCCCNC(=O)COCCOCCNC(=O)COCCOCCNC(=O)CC[C@H](NC(=O)CCCCCCCCCCCCCCCCC(=O)O)C(=O)O)NC(=O)[C@H](CC(C)C)NC(=O)[C@H](CCCCN)NC(=O)[C@@H](NC(=O)[C@@H]1CCCN1C(=O)[C@H](NC(=O)[C@H](CC(=O)O)NC(=O)[C@H](CC(C)C)NC(=O)[C@H](CO)NC(=O)[C@H](CC(C)C)NC(=O)[C@@H](NC(C)=O)C(C)C)C(C)C)[C@@H](C)CC)[C@@H](C)CC)[C@@H](C)O)C(=O)N[C@@H](CC(C)C)C(=O)N[C@@H](C)C(=O)N[C@@H](CCC(N)=O)C(=O)N[C@H](C(N)=O)C(C)C
B4: SEQ ID NO 226 (peptide)
peptide: Ac-IVLSLD[dV]PIGLK([γGlu-C20 diacid])KILLEQEKQKKQREQAETN[Aib]QILAQV-NH2
SMILES: CC[C@H](C)[C@H](NC(C)=O)C(=O)N[C@H](C(=O)N[C@@H](CC(C)C)C(=O)N[C@@H](CO)C(=O)N[C@@H](CC(C)C)C(=O)N[C@@H](CC(=O)O)C(=O)N[C@@H](C(=O)N1CCC[C@H]1C(=O)N[C@H](C(=O)NCC(=O)N[C@@H](CC(C)C)C(=O)N[C@@H](CCCCNC(=O)CC[C@H](NC(=O)CCCCCCCCCCCCCCCCCCC(=O)O)C(=O)O)C(=O)N[C@@H](CCCCN)C(=O)N[C@H](C(=O)N[C@@H](CC(C)C)C(=O)N[C@@H](CC(C)C)C(=O)N[C@@H](CCC(=O)O)C(=O)N[C@@H](CCC(N)=O)C(=O)N[C@@H](CCC(=O)O)C(=O)N[C@@H](CCCCN)C(=O)N[C@@H](CCC(N)=O)C(=O)N[C@@H](CCCCN)C(=O)N[C@@H](CCCCN)C(=O)N[C@@H](CCC(N)=O)C(=O)N[C@@H](CCCNC(=N)N)C(=O)N[C@@H](CCC(=O)O)C(=O)N[C@@H](CCC(N)=O)C(=O)N[C@@H](C)C(=O)N[C@@H](CCC(=O)O)C(=O)N[C@H](C(=O)N[C@@H](CC(N)=O)C(=O)NC(C)(C)C(=O)N[C@@H](CCC(N)=O)C(=O)N[C@H](C(=O)N[C@@H](CC(C)C)C(=O)N[C@@H](C)C(=O)N[C@@H](CCC(N)=O)C(=O)N[C@H](C(N)=O)C(C)C)[C@@H](C)CC)[C@@H](C)O)[C@@H](C)CC)[C@@H](C)CC)C(C)C)C(C)C
B5: SEQ ID NO 33 (peptide)
peptide: Ac-VLSLD[dV]PIKLK([γGlu-C16 diacid])KILLEQEKQKKQREQAETNKQILAQV-NH2
SMILES: CC[C@H](C)[C@H](NC(=O)[C@H](CCC(N)=O)NC(=O)[C@H](CCCCN)NC(=O)[C@H](CC(N)=O)NC(=O)[C@@H](NC(=O)[C@H](CCC(=O)O)NC(=O)[C@H](C)NC(=O)[C@H](CCC(N)=O)NC(=O)[C@H](CCC(=O)O)NC(=O)[C@H](CCCNC(=N)N)NC(=O)[C@H](CCC(N)=O)NC(=O)[C@H](CCCCN)NC(=O)[C@H](CCCCN)NC(=O)[C@H](CCC(N)=O)NC(=O)[C@H](CCCCN)NC(=O)[C@H](CCC(=O)O)NC(=O)[C@H](CCC(N)=O)NC(=O)[C@H](CCC(=O)O)NC(=O)[C@H](CC(C)C)NC(=O)[C@H](CC(C)C)NC(=O)[C@@H](NC(=O)[C@H](CCCCN)NC(=O)[C@H](CCCCNC(=O)CC[C@H](NC(=O)CCCCCCCCCCCCCCC(=O)O)C(=O)O)NC(=O)[C@H](CC(C)C)NC(=O)[C@H](CCCCN)NC(=O)[C@@H](NC(=O)[C@@H]1CCCN1C(=O)[C@H](NC(=O)[C@H](CC(=O)O)NC(=O)[C@H](CC(C)C)NC(=O)[C@H](CO)NC(=O)[C@H](CC(C)C)NC(=O)[C@@H](NC(C)=O)C(C)C)C(C)C)[C@@H](C)CC)[C@@H](C)CC)[C@@H](C)O)C(=O)N[C@@H](CC(C)C)C(=O)N[C@@H](C)C(=O)N[C@@H](CCC(N)=O)C(=O)N[C@H](C(N)=O)C(C)C
B6: SEQ ID NO 94 (peptide)
peptide: Propionyl-VLSLDVPIKLK([AEEA-AEEA-γGlu-C18 diacid])KILLEQEKQKKQREQAETNKQILAQV-NH2
SMILES: CCC(=O)N[C@H](C(=O)N[C@@H](CC(C)C)C(=O)N[C@@H](CO)C(=O)N[C@@H](CC(C)C)C(=O)N[C@@H](CC(=O)O)C(=O)N[C@H](C(=O)N1CCC[C@H]1C(=O)N[C@H](C(=O)N[C@@H](CCCCN)C(=O)N[C@@H](CC(C)C)C(=O)N[C@@H](CCCCNC(=O)COCCOCCNC(=O)COCCOCCNC(=O)CC[C@H](NC(=O)CCCCCCCCCCCCCCCCC(=O)O)C(=O)O)C(=O)N[C@@H](CCCCN)C(=O)N[C@H](C(=O)N[C@@H](CC(C)C)C(=O)N[C@@H](CC(C)C)C(=O)N[C@@H](CCC(=O)O)C(=O)N[C@@H](CCC(N)=O)C(=O)N[C@@H](CCC(=O)O)C(=O)N[C@@H](CCCCN)C(=O)N[C@@H](CCC(N)=O)C(=O)N[C@@H](CCCCN)C(=O)N[C@@H](CCCCN)C(=O)N[C@@H](CCC(N)=O)C(=O)N[C@@H](CCCNC(=N)N)C(=O)N[C@@H](CCC(=O)O)C(=O)N[C@@H](CCC(N)=O)C(=O)N[C@@H](C)C(=O)N[C@@H](CCC(=O)O)C(=O)N[C@H](C(=O)N[C@@H](CC(N)=O)C(=O)N[C@@H](CCCCN)C(=O)N[C@@H](CCC(N)=O)C(=O)N[C@H](C(=O)N[C@@H](CC(C)C)C(=O)N[C@@H](C)C(=O)N[C@@H](CCC(N)=O)C(=O)N[C@H](C(N)=O)C(C)C)[C@@H](C)CC)[C@@H](C)O)[C@@H](C)CC)[C@@H](C)CC)C(C)C)C(C)C

biological target: human corticotropin-releasing factor 2a (CRF2a receptor) (human), Q13324; assay: cell-based or functional assay
Sequence (Q13324 20-411): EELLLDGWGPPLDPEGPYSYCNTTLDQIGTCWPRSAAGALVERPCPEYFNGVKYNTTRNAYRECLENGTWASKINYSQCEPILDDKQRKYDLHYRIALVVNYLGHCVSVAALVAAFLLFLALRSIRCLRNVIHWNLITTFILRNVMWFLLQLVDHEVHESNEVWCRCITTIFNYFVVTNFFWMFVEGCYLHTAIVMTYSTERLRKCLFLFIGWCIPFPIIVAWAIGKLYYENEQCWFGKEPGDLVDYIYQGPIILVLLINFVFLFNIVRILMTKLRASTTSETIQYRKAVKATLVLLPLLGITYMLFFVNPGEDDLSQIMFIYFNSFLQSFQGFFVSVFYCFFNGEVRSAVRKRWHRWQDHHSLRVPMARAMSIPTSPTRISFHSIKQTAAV

EC50 [nM] (cAMP) | Binder
5.08 nM | B1
0.2 nM | B2
2.3 nM | B3
0.18 nM | B4
0.47 nM | B5
1.48 nM | B6

biological target: T1, CRF1R receptor; assay: cell-based or functional assay

Emax (% I) | EC50 | Binder
6% |  | B1
97% | 1.74 nM | B2
5% |  | B3
82% | 42.1 nM | B4
13% |  | B5
0% |  | B6
